Experimental findings from US20090215075A1, “THREE-DIMENSIONAL STRUCTURE OF A DNAB-FAMILY R[…] (G40P), USES THEREOF, AND METHODS FOR […]-BACTERIAL PATHOGENS BY […] HELICASES AND THE INTERACTIONS OF DNAB HELICASE WITH PRIMASE” (priority 2007, published 2009) are described below.

In data set [1] the target is T1, B. subtilis DnaG primase (Bacillus subtilis, UniProt P05096).
T1 construct: GST (N); made in house; host or cells: E. coli
The experiment in a line: Native gel shift assay of primase binding. Particulars: native gel shift with B. subtilis DnaG primase. The procedure: Interactions between G40P and B. subtilis DnaG primase were examined using a native gel shift assay. 10 ug of various G40P constructs were mixed with 10 ug primase in a buffer containing 25 mM TrisHCl pH 8.0, 50 mM NaCl, 5 mM MgCl2, and 1 mM ATP-γ-S and incubated for 30 minutes on ice. The protein mixtures were then analyzed by 6% polyacrymamide native gel electrophoresis at 150 voltage for one hour at 4 degrees C. The gel was stained by Coomassie blue for detection.
Background: In EMSA bound probe runs differently from free probe, usually more slowly.

Data set [2] concerns the target T2, B. subtilis DnaG primase (Bacillus subtilis, UniProt P05096 1-603, limits assumed).
T2 construct: Recombinant
T2 sequence (looked up): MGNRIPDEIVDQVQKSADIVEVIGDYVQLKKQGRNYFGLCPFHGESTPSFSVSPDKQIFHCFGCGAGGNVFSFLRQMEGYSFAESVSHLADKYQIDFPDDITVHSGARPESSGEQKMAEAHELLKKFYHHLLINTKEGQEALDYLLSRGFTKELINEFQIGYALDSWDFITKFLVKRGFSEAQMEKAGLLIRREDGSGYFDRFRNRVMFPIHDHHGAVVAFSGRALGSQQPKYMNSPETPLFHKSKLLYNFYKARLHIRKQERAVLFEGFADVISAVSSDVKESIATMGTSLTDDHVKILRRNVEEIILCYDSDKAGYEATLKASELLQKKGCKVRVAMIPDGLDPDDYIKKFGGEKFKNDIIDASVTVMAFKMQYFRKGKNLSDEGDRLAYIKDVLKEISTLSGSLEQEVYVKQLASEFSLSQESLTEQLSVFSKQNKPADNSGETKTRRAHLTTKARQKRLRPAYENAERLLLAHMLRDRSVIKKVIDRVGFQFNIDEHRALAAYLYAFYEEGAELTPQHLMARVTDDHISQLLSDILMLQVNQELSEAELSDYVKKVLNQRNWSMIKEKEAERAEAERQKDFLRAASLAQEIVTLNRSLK
The experiment in a line: native gel shift assay, 10 ug G40P construct with 10 ug primase. The source says: G40P/DnaB replicative helicases bind DnaG primase at the replication fork, this interaction is important for coordinating DNA unwinding by the helicase with RNA primer synthesis by the primase. We investigated the requirement of N-terminal domain of G40P in primase binding using the N-terminal deletions. […] We next examined if the isolated N-terminal domain of G40P can bind primase. The two constructs containing only the N-terminal α-hairpin and N-globe domains (N149 and N171) had no detectable primase binding in native gel shift assays (FIGS. 4d and 11). Both constructs behaved like monomers in gel filtration (data not shown).
Interactions between G40P and B. subtilis DnaG primase were examined using a native gel shift assay. 10 ug of various G40P constructs were mixed with 10 ug primase in a buffer containing 25 mM TrisHCl pH 8.0, 50 mM NaCl, 5 mM MgCl₂, and 1 mM ATP-γ-S and incubated for 30 minutes on ice. The protein mixtures were then analyzed by 6% polyacrymamide native gel electrophoresis at 150 voltage for one hour at 4 degrees C. The gel was stained by Coomassie blue for detection.

Data set [3] deals with 32P-labeled 60-base oligonucleotide annealed to circular M13mp18 ssDNA. Kind of data set: Helicase assay. In kind it is biochemical. Conditions: for helicase activity (in words): compared with wt G40P. The procedure:
The substrate for the helicase assay was prepared by annealing a ^32P-labeled ssDNA (a 60-base oligonucleotide) to the circular M13mp18 ssDNA. This oligonucleotide has 35 nucleotides annealed to the M13 DNA, leaving a 25-nucleotide 5′ overhang. The substrate DNA was incubated with various amounts of different G40P mutant proteins in the presence or absence of primase at 37 degrees C. for 30 minutes in a buffer containing 20 mM Tris-HCl (pH 7.5), 5 mM ATP, 10 mM MgCl2, 1 mM DTT, and 50 mM NaCl. The reaction was terminated by adding a stop solution containing 100 mM EDTA, 0.5% SDS, and 50% glycerol. Samples were analyzed on a 12% native polyacrylamide gel in 1 M Tris/borate/EDTA running buffer. The unwinding of the substrate DNA was detected by autoradiography.

B1: G40P N-terminal fragment N171 (other)
chain: MNPEEKTVMLYNEYAEQAVLGSILTEPELIKECPLTPEHFSPGKHFNIYFTMQDLDRKGQSVDFTSIAARVGEKLPQLGGFGYLTELAASVASTTTFKQHCQTVSEYFQKRKAISIAQQIIENVNESDDGPVKPIQEAVSELMEIEASGTDDDDGSIDEALVTVYEEIESA
notes: Contains only the N-globe and α-hairpin domains; Limits inferred from the name; Behaved like a monomer in gel filtration
For the molecule B1, the primase binding result with B. subtilis DnaG primase [1] is reported as “no detectable primase binding”. Besides, the binding result in the data set with B. subtilis DnaG primase [2] is given as “no binding”.

B2: G40P N-terminal deletion mutant ΔN129 (enzyme)
chain: GPVKPIQEAVSELMEIEASGTDDDDGSIDEALVTVYEEIESADGNITGVPSGFTELDRMTYGYKRRNFVLIAARPSMGKTAFALKQAKNMSDNDDVVNLHSLEMGKKENIKRLIVTAGSINAQKIKAARRDFASEDWGKLSMAIGEISNSNINIFDKAGQSVNYIWSKTRQTKRKNPGKRVIVMIDYLQLLEPAKANDSRTNQISQISRDLKKMARELDVVVIALSQLSRQVEQRQDKRPMLSDLRESGQLEQDADIIEFLYRDDYYDKESESKNIVEVIIAKHRDGPVGTVSLAFIKEYGNFVNLERRFDDR
notes: Forms hexamers in gel filtration; also called G40P-Δ129; G40P truncated monomer
B2: the “helicase activity (in words)” value in data set [3] is listed as “no detectable helicase activity”. For the same molecule, the primase binding entry with B. subtilis DnaG primase [1] is recorded as “devoid of primase binding”. In addition, in the data set with B. subtilis DnaG primase [2], the binding result is given as “no binding”.

B3: G40P N-terminal deletion mutant ΔN108 (enzyme)
chain: QKRKAISIAQQIIENVNESDDGPVKPIQEAVSELMEIEASGTDDDDGSIDEALVTVYEEIESADGNITGVPSGFTELDRMTYGYKRRNFVLIAARPSMGKTAFALKQAKNMSDNDDVVNLHSLEMGKKENIKRLIVTAGSINAQKIKAARRDFASEDWGKLSMAIGEISNSNINIFDKAGQSVNYIWSKTRQTKRKNPGKRVIVMIDYLQLLEPAKANDSRTNQISQISRDLKKMARELDVVVIALSQLSRQVEQRQDKRPMLSDLRESGQLEQDADIIEFLYRDDYYDKESESKNIVEVIIAKHRDGPVGTVSLAFIKEYGNFVNLERRFDDR
notes: Limits inferred from the name, by analogy with ΔN129 = residues 130-442; Forms hexamers in gel filtration
In the case of B3, the “helicase activity (in words)” value in data set [3] was “no detectable helicase activity”. Moreover, the primase binding result with B. subtilis DnaG primase [1] was “devoid of primase binding”. Further, the binding result with B. subtilis DnaG primase [2] is reported as “no binding”.

B4: G40P N-terminal deletion mutant ΔN92 (enzyme)
chain: STTTFKQHCQTVSEYFQKRKAISIAQQIIENVNESDDGPVKPIQEAVSELMEIEASGTDDDDGSIDEALVTVYEEIESADGNITGVPSGFTELDRMTYGYKRRNFVLIAARPSMGKTAFALKQAKNMSDNDDVVNLHSLEMGKKENIKRLIVTAGSINAQKIKAARRDFASEDWGKLSMAIGEISNSNINIFDKAGQSVNYIWSKTRQTKRKNPGKRVIVMIDYLQLLEPAKANDSRTNQISQISRDLKKMARELDVVVIALSQLSRQVEQRQDKRPMLSDLRESGQLEQDADIIEFLYRDDYYDKESESKNIVEVIIAKHRDGPVGTVSLAFIKEYGNFVNLERRFDDR
notes: Lacks the N-globe and keeps an intact α-hairpin; Forms hexamers in gel filtration
With B4, the “helicase activity retained, of the wt activity” value in data set [3] (absence of primase, relative to full-length (wt) G40P) is reported as roughly 66%. Also, in the data set with B. subtilis DnaG primase [1], the primase binding entry is given as “devoid of primase binding”. Further, the binding result in the data set with B. subtilis DnaG primase [2] is reported as “no binding”.

B5: B. subtilis DnaG primase (protein)
chain: MGNRIPDEIVDQVQKSADIVEVIGDYVQLKKQGRNYFGLCPFHGESTPSFSVSPDKQIFHCFGCGAGGNVFSFLRQMEGYSFAESVSHLADKYQIDFPDDITVHSGARPESSGEQKMAEAHELLKKFYHHLLINTKEGQEALDYLLSRGFTKELINEFQIGYALDSWDFITKFLVKRGFSEAQMEKAGLLIRREDGSGYFDRFRNRVMFPIHDHHGAVVAFSGRALGSQQPKYMNSPETPLFHKSKLLYNFYKARLHIRKQERAVLFEGFADVISAVSSDVKESIATMGTSLTDDHVKILRRNVEEIILCYDSDKAGYEATLKASELLQKKGCKVRVAMIPDGLDPDDYIKKFGGEKFKNDIIDASVTVMAFKMQYFRKGKNLSDEGDRLAYIKDVLKEISTLSGSLEQEVYVKQLASEFSLSQESLTEQLSVFSKQNKPADNSGETKTRRAHLTTKARQKRLRPAYENAERLLLAHMLRDRSVIKKVIDRVGFQFNIDEHRALAAYLYAFYEEGAELTPQHLMARVTDDHISQLLSDILMLQVNQELSEAELSDYVKKVLNQRNWSMIKEKEAERAEAERQKDFLRAASLAQEIVTLNRSLK
Consider B5, for which the “primase-mediated stimulation of the ATPase and helicase activity of G40P” value with G40P point mutant mt4 is “mt4 displayed much reduced primase-mediated stimulation of the ATPase and helicase activity of G40P”.

B6: G40P N-terminal deletion mutant ΔN112 (enzyme)
chain: AISIAQQIIENVNESDDGPVKPIQEAVSELMEIEASGTDDDDGSIDEALVTVYEEIESADGNITGVPSGFTELDRMTYGYKRRNFVLIAARPSMGKTAFALKQAKNMSDNDDVVNLHSLEMGKKENIKRLIVTAGSINAQKIKAARRDFASEDWGKLSMAIGEISNSNINIFDKAGQSVNYIWSKTRQTKRKNPGKRVIVMIDYLQLLEPAKANDSRTNQISQISRDLKKMARELDVVVIALSQLSRQVEQRQDKRPMLSDLRESGQLEQDADIIEFLYRDDYYDKESESKNIVEVIIAKHRDGPVGTVSLAFIKEYGNFVNLERRFDDR
notes: as for B3
As for B6, the “helicase activity (in words)” value in data set [3] is listed as “no detectable helicase activity”. For the same molecule, in the data set with B. subtilis DnaG primase [1], the primase binding entry is “devoid of primase binding”. Besides, the binding result with B. subtilis DnaG primase [2] is recorded as “no binding”.

B7: G40P N-terminal fragment N149 (other)
chain: MNPEEKTVMLYNEYAEQAVLGSILTEPELIKECPLTPEHFSPGKHFNIYFTMQDLDRKGQSVDFTSIAARVGEKLPQLGGFGYLTELAASVASTTTFKQHCQTVSEYFQKRKAISIAQQIIENVNESDDGPVKPIQEAVSELMEIEASG
notes: as for B1
Take B7: in the data set with B. subtilis DnaG primase [1], the primase binding entry is “no detectable primase binding”. Further, in the data set with B. subtilis DnaG primase [2], the binding result is on record as “no binding”.
